Data set [1] is described as follows: Flag-PD-L1 IP with HA-Ub, Western blot. The note with it: glycan gained; control: control-transfected HepG2 (vector / siNC), MG132. On the technique in general: Immunoblotting shows a protein as a band on a membrane.
The next data set is described as follows: Western blot of PD-L1. As to conditions: glycan lost; control: untreated HepG2 cells.

Regarding PD-L1: GALNT16 overexpression, in data set [1], the “other: ubiquitination” value is “decreases”.

As for PD-L1: tunicamycin (2 µg/mL, 18 h), the expression_or_secretion result in the data set “Western blot of PD-L1” is “decreases”.

Values taken from article PMC12658286.
